Patent publication US6399747 (Amgen, dated 2002)
Values belong to the binder of their own block, whether it stands above or below them.

Key:
[1] = target: T1, mPAL (amino acids 11 to 648) expressed in 293T cells from pcDNA3.1-mPAL (mouse, UniProt Q9Z179 11-648); experiment: GST pull-down from 293T-mPAL lysate, anti-mPAL immunoblot
T1 sequence: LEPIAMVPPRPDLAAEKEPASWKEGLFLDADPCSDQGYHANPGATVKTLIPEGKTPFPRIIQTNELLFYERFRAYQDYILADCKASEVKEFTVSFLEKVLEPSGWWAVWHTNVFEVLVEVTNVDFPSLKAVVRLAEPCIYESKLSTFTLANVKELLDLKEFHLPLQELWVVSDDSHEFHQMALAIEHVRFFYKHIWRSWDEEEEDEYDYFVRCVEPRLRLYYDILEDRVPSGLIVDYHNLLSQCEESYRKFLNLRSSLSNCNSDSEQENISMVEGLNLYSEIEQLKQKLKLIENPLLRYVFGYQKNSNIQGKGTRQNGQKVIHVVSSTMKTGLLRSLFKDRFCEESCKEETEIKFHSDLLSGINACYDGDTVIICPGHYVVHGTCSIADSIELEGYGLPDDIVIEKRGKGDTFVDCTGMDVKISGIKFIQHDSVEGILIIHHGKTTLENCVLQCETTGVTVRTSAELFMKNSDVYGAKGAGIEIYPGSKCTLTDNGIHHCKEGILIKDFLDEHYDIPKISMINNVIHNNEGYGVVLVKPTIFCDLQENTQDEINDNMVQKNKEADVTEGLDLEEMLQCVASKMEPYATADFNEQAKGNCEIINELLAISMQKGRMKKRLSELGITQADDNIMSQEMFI
Method: To examine the specificity of the mPAL-Shc SH2 interaction, a series of GST-SH2 fusion proteins generated from several signal transduction molecules were tested for their ability to precipitate mPAL. A panel of GST-SH2 fusion proteins generated from several signal transduction molecules (Shc PTB domain, Blaikie et al., *J. Biol. Chem.* 269:23031–32034(1994), Shc SH2 domain, Pellici et al., *Cell* 70:93–104 (1992), Grb2 SH2 domain, Rozakis-Adcock et al., *Nature* 360:689–692 (1992), Vav SH2 domain Margolis et al., *Nature* 356: 71–74 (1992), N-terminal SH2 domain of ras-GAP, N-terminal SH2 domain (p85-N) and C-terminal SH2 domain (p85-C) of p85 subunit of PI-3 kinase, N-terminal SH2 domain (PLCγ-N), and C-terminal SH2 domain (PLCγ-C) of phospholipase C-γ1 Anderson et al., *Science* 250:979–982 (1992), Ellis et al., *Mol. Cell Biol.* 12:991–997(1992), and Nck SH2 domain, Lehman et al., *Nucl. Acids Res.* 18:1048 (1990), were immobilized on glutathione-Sepharose beads.

[2] = target: T2, mPAL cDNA clone from the yeast two-hybrid screen, fused to the GAL4 transcription activation domain (yeast; mouse, UniProt Q9Z179 16-668); experiment: yeast two-hybrid
T2 construct: Eleven clones were isolated (3 from T-cell, 8 from embryo library); As an in-frame fusion it may start at residue 11; also called GAL4-cDNA fusion; GAL4-TA fusion
T2 sequence: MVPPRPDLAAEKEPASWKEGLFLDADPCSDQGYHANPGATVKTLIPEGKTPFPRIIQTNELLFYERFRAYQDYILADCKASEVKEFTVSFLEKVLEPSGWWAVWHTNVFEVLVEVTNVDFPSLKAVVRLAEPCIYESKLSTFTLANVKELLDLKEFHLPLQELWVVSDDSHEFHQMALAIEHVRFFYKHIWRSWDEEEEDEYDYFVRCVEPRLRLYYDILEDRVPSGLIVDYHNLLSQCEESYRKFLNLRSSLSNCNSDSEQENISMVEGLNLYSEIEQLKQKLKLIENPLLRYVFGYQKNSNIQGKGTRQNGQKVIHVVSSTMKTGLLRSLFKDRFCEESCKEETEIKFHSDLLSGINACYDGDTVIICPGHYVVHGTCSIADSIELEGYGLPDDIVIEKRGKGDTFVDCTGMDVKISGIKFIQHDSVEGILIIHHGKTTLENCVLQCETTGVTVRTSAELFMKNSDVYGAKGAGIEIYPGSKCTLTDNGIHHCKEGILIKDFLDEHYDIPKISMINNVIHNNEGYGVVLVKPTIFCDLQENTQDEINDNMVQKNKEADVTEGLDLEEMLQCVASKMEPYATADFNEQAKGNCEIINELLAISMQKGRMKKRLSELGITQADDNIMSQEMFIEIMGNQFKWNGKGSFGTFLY

binding result [1]: no binding
B1: GST-Nck SH2 (amino acids 281-377 of human Nck) (other, UniProt P16333 281-377, looked up)
chain: PWYYGKVTRHQAEMALNERGHEGDFLIRDSESSPNDFSVSLKAQGKNKHFKVQLKETVYCIGQRKFSTMEELVEHYKKAPIFTSEQGEKLYLVKHLS
notes: range 281-377; not shown: glutathione S-transferase (GST)

binding result [2]: no binding
B2: PTB domain of p52 Shc (yeast two-hybrid construct) (other, UniProt P29353-2 1-209, looked up)
chain: MNKLSGGGGRRTRVEGGQLGGEEWTRHGSFVNKPTRGWLHPNDKVMGPGVSYLVRYMGCVEVLQSMRALDFNTRTQVTREAISLVCEAVPGAKGATRRRKPCSRPLSSILGRSNLKFAGMPITLTVSTSSLNLMAADCKQIIANHHMQSISFASGGDPDTAEYVAYVAKDPVNQRACHILECPEGLAQDVISTIGQAFELRFKQYLRNP
notes: domain: PTB; Construct is not described

binding result [2]: no binding
B3: CH1 domain of p52 Shc (yeast two-hybrid construct) (other, UniProt P29353-2 230-377, looked up)
chain: EEEEPPDHQYYNDFPGKEPPLGGVVDMRLREGAAPGAARPTAPNAQTPSHLGATLPVGQPVGGDPEVRKQMPPPPPCPGRELFDDPSYVNVQNLDKARQAVGGAGPPNPAINGSAPRDLFDMKPFEDALRVPPPPQSVSMAEQLRGEP
notes: domain: CH1; Construct is not described
